Measurements from paper PMC8097376 (2021).

Legend:
[1] = target: S1 domain of the SARS-CoV-2 spike protein (SARS-CoV-2, UniProt P0DTC2 14-681)
[2] = target: T1, SARS-CoV-2 spike receptor-binding domain (RBD) (SARS-CoV-2, UniProt P0DTC2 319-541); experiment: BLI
[3] = target: T1, SARS-CoV-2 spike receptor-binding …; experiment: BLI; remark: listed apart in the source
[4] = target: T1, SARS-CoV-2 spike receptor-binding …

| Binder | IC50 [1] [nM] | koff [2] [s⁻¹] | Kd [3] [nM] | IC50 [4] [nM] |
| --- | --- | --- | --- | --- |
| nanobody NM1228 (VHH) VHH: DVQLVESGGGLVRPGGSLRLSCESSGRHFDIDTMGWYRQAPGKQRELVASITSEKSTVYADALKGRFTISRDIPDNNVYLQMNNLKPEDTAVYYCNAKMDPHSLDYALGNQVFWGQGSLVTVSS | 0.85 | 0.00064 |  |  |
| nanobody NM1225 (VHH) VHH: QVQLVESGGGLVQPGGSLRLSCAASGNILRVHDMGWYRQAPGKQREYVAMITHGGITNYIDSVKGRFTISRDNAKNTVYLQMNSLKPEDTAVYYCHAVLSSALNGVTETSSNWGQGTQVTVSS |  | 0.473 | 53700 |  |
| nanobody NM1227 (VHH) VHH: EVQLVESGGGLVQPGGSLTLSCETSGRHFDIDDMGWYRQAPGKQRELVACITTESSTTYADAVKGRFTISRDNPDNTVYLQMTNLKPEDTAVYYCNAEMHPRSLDYALGNRDYWGQGAPVTVSS | 3.51 | 0.00079 | 3.72 | 1.65 |
| nanobody NM1222 (VHH) VHH: EVQLVESGGGLVRPGGSLRLSCVGSGFTFSGYAINWYRQAPGKALELVAGISNAGDLTHYEEAMKGRVAISRANDKNTVYLQMDDLKPEDTAVYRCHAPGVRVGTGERNDVWGQGAQVTVSS | 27.3 | 0.00294 | 18 | 5.8 |
| nanobody NM1230 (VHH) VHH: QVQLVESGGGLVRPGGSLRLSCVGSGFTFSGYAMNWYRQAPGKALELVAGISNAGDLTHYEEPMKGRVAISRANDKNTVYLQMDDLKPEDTAVYRCHAPGVRVGTGERKDVWGQGAQVTVSS | 10.6 | 0.00166 |  |  |
| nanobody NM1221 (VHH) VHH: DVQLVESGGGLVQPGGSLTLSCVGSGFLFSGYAMNWYRQAPGKALELVAGISNAGDITHYEEAMKGRVAISRVNDKNTVYLQMDDLKPEDTAVYRCHAPGVRVASGERNDVWGQGTQVTVSS | 43.3 | 0.00296 | 22.7 | 10.1 |
| nanobody NM1226 (VHH) VHH: QVQLVESGGGSVQPGGSLRLSCLGSGSLDYYAIGWFRQAPGKEREGVSCIASSGDRTIYADSVKGRFTISRDYGKNTVYLQMNSLKPEDTAMYYCAALQGSYYYTGFVANEYDYWGQGAPVTVSS | 1.44 | 0.00115 |  |  |
| nanobody NM1223 (VHH) VHH: EVQLVESGGGLVQPGGSLRLSCSASGFAFSSVSMSWVRLLPGKGTEWVAEIDRDGGNGNYEDSVKGRFTISRDNAKNTLFLQMNSLVPEDTALYYCRLGTRDHIMSGWGPGAPVTVSS |  | 0.00027 |  |  |
| nanobody NM1224 (VHH) VHH: DVQLVESGGSLVQPGGSLRLSCETSRSSLDAYAIGWFRQAPGKEREGVASISSSSMRTEYADSVKGRFTISRDNAKNTAYLDMNSLKPEDTAVYYCAAAGEYGRAWPGLDWYEFEYEGPGSPVTVSS |  | 0.00267 |  | 36.6 |
| nanobody NM1229 (VHH) VHH: EVQLQESGGGLVQPGESLRLSCAASGRTHDWYTMGWFRQAPGKEREFVARINWSSGMTYYADSVKGRFTISRDNPKNTVYLQMNSLTPDDTAVYYCNVHPFTSPDYWGQGTRVTVSS | 56.1 | 0.00985 | 53.2 | 37.8 |
